This is an account of results in US20060193771A1.

Assay [1] concerns the target human CD30, native, expressed on cells (human). Put plainly: competitive FACS on L540 cells, unlabeled MAb 2.5 µg/ml; competitor: biotin-HRS-4.
Assay [2] has the same target. Put plainly: FACS, L540 cells, MAb 5 µg/ml, control HeFi-I. On the technique in general: A flow cytometer gives signals particle by particle.
Assay [3] has the same target. Put plainly: competitive FACS on L540 cells, unlabeled MAb 2.5 µg/ml; competitor: biotin-T14.
For another assay, the target named is T1, CD30-Fc (human).
T1 sequence: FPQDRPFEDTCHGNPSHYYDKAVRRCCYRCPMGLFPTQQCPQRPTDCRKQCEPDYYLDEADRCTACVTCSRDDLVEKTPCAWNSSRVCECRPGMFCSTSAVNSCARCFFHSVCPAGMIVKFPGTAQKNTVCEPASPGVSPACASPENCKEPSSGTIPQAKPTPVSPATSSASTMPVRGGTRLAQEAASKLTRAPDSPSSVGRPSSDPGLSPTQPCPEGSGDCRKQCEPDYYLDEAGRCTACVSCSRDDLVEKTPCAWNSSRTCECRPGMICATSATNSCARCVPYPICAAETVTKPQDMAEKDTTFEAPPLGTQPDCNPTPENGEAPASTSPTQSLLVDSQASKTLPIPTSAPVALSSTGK
Put plainly: indirect ELISA, CD30-Fc coated.

The target in assay [4] is T2, recombinant soluble CD30 (sCD30) produced in E. coli (human).
T2 sequence: T1 sequence
As to the kind of experiment: indirect ELISA, sCD30 coated.

For assay [5], the target named is human CD30, native, expressed on cells (human). Put plainly: competitive FACS on L540 cells, unlabeled MAb 2.5 µg/ml; competitor: biotin-HeFi-I.
Assay [6] shares this target. As to the kind of experiment: competitive FACS on L540 cells, unlabeled MAb 2.5 µg/ml; competitor: biotin-T24.
The target is the same in assay [7]. Put plainly: FACS, L428 cells, MAb 5 µg/ml, control HeFi-I.
For assay [8] the target is unchanged. Put plainly: competitive FACS on L540 cells, unlabeled MAb 2.5 µg/ml; competitor: biotin-T6.
Assay [9] shares this target. As to the kind of experiment: competitive FACS on L540 cells, unlabeled MAb 2.5 µg/ml; competitor: biotin-T25.
For assay [10], the target named is transferrin receptor on L540 cells (UniProt P02786). As to the kind of experiment: cell-based or functional assay.
Sequence of transferrin receptor on L540 cells (P02786 whole entry): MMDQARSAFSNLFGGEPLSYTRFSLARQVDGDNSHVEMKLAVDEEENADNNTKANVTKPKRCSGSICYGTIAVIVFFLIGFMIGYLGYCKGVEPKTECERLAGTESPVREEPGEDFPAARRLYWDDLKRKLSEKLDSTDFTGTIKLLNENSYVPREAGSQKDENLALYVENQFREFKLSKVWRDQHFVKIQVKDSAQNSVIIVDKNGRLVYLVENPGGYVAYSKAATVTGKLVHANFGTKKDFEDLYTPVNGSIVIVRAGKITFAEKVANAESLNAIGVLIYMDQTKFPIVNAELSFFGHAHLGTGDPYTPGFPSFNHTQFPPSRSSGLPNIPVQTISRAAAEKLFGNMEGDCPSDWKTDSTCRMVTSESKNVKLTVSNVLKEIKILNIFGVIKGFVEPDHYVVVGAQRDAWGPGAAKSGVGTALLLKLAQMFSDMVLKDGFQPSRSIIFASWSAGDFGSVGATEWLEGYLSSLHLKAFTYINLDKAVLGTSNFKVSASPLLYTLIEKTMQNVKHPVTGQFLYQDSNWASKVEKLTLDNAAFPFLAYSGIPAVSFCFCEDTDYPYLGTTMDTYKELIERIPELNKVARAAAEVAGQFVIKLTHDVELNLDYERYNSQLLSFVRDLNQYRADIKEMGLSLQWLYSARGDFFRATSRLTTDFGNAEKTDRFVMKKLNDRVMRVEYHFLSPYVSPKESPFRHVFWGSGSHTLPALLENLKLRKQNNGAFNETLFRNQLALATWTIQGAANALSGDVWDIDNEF
For assay [11], the target named is human CD30, native, expressed on cells (human). Put plainly: FACS, L540 cells, control HeFi-I.
The target is the same in assay [12]. Put plainly: FACS, L428 cells, control HeFi-I.

Sequence of HB21(scFv)-PE40 (P11439 278-638): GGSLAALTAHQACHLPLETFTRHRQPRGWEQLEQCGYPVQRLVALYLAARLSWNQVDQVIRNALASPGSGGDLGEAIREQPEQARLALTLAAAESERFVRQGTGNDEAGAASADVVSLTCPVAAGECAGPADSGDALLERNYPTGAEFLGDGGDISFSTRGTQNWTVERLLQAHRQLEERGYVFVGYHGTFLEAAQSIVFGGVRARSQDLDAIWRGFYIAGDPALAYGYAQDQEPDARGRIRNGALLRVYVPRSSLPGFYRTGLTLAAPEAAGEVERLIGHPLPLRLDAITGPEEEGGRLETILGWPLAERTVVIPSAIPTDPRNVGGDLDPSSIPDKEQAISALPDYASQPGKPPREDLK

Consider Ber-H2 MAb (antibody), for which the inhibition of the binding of biotin-MAb (%) in assay [1] worked out at 80.3%; in assay [3], 108%; in assay [5], 0%; in assay [6], 18.2%; in assay [8], 75.6%; in assay [9], 23.3%. Besides, the values for the relative reactivity in FACS (% of control) in [2] and in [7] were 111 % of control and 160 % of control, respectively. The titer in ELISA with CD30-Fc (human) worked out at 75 mL/µg; in assay [4], 50 mL/µg.

As for “HB21(scFv)-PE40 (from UniProt P11439 278-638)”, in [10], the IC50 (ng/ml) in cytotoxicity test, A431/CD25 cells was found to be 0.03 ng/mL; the IC50 (ng/ml) in cytotoxicity test, A431/CD30 cells came out at 0.02 ng/mL; the IC50 (ng/ml) in cytotoxicity test, HUT102W cells is 1.5 ng/mL; the IC50 (ng/ml) in cytotoxicity test, SUDHL-1 cells turned out to be 0.05 ng/mL. Besides, the IC50 (ng/ml) in cytotoxicity test, SUP-M2 cells in assay [10] was 0.02 ng/mL.

Consider HRS-4 MAb (antibody), for which the inhibition of the binding of biotin-MAb (%) was found to be 82.6% in [1]; 108% in assay [3]; 0% in [5]; 3.9% in assay [6]; 87.4% in assay [8]; 25% in assay [9]. In the assay with CD30-Fc (human), this substance returned a titer in ELISA of 50 mL/µg.

For control mouse IgG1 (antibody), the relative reactivity in FACS (% of control) in [11] is 0.2 % of control; in assay [12] it was 16 % of control.
